Assay results from PMC10989685, “Structural and functional characterization of the IgSF21-neurexin2α complex and its related signaling pathways in the regulation of inhibitory synapse organization” (Frontiers in Molecular Neuroscience, 2024).

Molecular target: T1, Recombinant human Fc-tagged NRXN2α (human Nrxn2α-Fc, R&D Systems #6636-NX) (human, UniProt Q9P2S2 29-1636)
T1 construct: Neurexin2α (Nrxn2α), human, ectodomain; The catalogue number is printed for the pull-down only; Limits and splice variant are in the supplier's data sheet; also called soluble Nrxn2α ectodomain; soluble Nrxn2α; source: bought: R&D Systems (#6636-NX), highly purified
T1 sequence (Q9P2S2 29-1636): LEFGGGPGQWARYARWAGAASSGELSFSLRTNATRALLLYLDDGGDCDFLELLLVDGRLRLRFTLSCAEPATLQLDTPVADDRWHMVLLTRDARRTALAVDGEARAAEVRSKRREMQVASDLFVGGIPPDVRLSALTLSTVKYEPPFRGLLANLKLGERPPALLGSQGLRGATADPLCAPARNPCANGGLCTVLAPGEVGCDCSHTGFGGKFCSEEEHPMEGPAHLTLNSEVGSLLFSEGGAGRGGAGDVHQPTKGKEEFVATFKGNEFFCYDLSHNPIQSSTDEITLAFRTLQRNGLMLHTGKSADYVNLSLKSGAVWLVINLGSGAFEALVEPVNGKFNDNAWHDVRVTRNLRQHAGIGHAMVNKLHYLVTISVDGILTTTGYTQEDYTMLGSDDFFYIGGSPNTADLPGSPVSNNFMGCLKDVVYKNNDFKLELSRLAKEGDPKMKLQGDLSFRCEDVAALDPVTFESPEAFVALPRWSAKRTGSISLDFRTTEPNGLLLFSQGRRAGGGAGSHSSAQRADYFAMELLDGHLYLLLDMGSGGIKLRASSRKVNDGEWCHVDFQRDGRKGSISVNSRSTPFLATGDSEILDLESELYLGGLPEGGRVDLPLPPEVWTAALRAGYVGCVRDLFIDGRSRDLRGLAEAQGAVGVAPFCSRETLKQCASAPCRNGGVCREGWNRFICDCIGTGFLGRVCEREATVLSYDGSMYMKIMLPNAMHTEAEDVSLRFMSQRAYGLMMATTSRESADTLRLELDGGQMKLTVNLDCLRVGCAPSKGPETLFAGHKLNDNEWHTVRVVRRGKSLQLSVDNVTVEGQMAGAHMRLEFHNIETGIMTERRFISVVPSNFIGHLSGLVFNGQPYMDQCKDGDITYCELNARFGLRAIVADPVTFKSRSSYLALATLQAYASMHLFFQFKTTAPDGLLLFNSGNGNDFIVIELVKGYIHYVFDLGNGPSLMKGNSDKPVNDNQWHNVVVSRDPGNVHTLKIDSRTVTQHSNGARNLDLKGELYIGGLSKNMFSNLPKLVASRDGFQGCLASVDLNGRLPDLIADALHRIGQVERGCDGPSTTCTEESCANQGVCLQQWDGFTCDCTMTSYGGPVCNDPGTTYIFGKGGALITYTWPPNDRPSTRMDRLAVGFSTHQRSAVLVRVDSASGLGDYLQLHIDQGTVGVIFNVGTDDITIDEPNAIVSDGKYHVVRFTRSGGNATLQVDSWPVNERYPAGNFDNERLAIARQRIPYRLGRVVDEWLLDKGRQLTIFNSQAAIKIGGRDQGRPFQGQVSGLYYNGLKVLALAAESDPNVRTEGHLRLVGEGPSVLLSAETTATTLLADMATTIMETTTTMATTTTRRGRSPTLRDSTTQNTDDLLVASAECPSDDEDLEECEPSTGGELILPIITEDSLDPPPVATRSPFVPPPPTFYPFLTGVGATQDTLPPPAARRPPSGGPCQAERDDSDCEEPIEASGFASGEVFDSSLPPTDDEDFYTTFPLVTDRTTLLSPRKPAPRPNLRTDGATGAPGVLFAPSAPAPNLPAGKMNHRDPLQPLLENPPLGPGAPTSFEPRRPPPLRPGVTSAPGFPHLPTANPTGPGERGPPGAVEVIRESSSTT
Assay: SPR; Biacore T200; IgSF21-His amine-coupled to a CM5 chip (500 RU); NRXN2α-Fc as analyte, 0 to 200 nM; PBS pH 7.4, 0.025% Tween-20, 25°C, 20 μl/min; one-site Langmuir (1:1) model, kinetic analysis
Conditions: both partners purified

Kd: 5.67 nM
B1: Recombinant human His-tagged IgSF21 protein (R&D Systems #10330-S2) (natural protein, UniProt Q96ID5 25-444, looked up)
chain: YLTVNIEPLPPVVAGDAVTLKCNFKTDGRMREIVWYRVTDGGTIKQKIFTFDAMFSTNYSHMENYRKREDLVYQSTVRLPEVRISDNGPYECHVGIYDRATREKVVLASGNIFLNVMAPPTSIEVVAADTPAPFSRYQAQNFTLVCIVSGGKPAPMVYFKRDGEPIDAVPLSEPPAASSGPLQDSRPFRSLLHRDLDDTKMQKSLSLLDAENRGGRPYTERPSRGLTPDPNILLQPTTENIPETVVSREFPRWVHSAEPTYFLRHSRTPSSDGTVEVRALLTWTLNPQIDNEALFSCEVKHPALSMPMQAEVTLVAPKGPKIVMTPSRARVGDTVRILVHGFQNEVFPEPMFTWTRVGSRLLDGSAEFDGKELVLERVPAELNGSMYRCTAQNPLGSTDTHTRLIVFENPNIPRGTEDSN
notes: Immunoglobulin superfamily member 21 (IgSF21), human, soluble recombinant protein; Soluble bought protein, probably the ectodomain without the GPI-anchor signal; also called IgSF21-His; human IgSF21-His; source: bought: R&D Systems (#10330-S2), purified
